Test results reported in article PMC1557830.

Columns and labels:
[1] = target: SIV surface glycoprotein gp120 (SIVmneE11S), on virions (SIV (strain SIVmneE11S)) (UniProt P05885); experiment: cryo-EM structure; cryo-electron tomography of vitrified intact SIVmneE11S virions; 2,986 spikes extracted, aligned and averaged with 3-fold symmetrisation; 28 Å (0.5 FSC); Env unliganded, in situ on the viral membrane
[2] = target: SIV transmembrane glycoprotein gp41 (SIVmneE11S), naturally truncated intra-viral domain of 17 amino acids, on virions (SIV (strain SIVmneE11S)) (UniProt P05885); experiment: as above

Substance	stoichiometry N [1]	stoichiometry N [2]
SIV surface glycoprotein gp120 (SIVmneE11S), on virions (from UniProt P05885 23-528) (natural protein)	3	–
SIV transmembrane glycoprotein gp41 (SIVmneE11S), naturally truncated intra-viral domain of 17 amino acids, on virions (from UniProt P05885 529-882) (natural protein)	–	3
